Results: the supplement of paper PMC12042874
± gives the uncertainty stated by the source.

Assay: amyloid nucleation score (Sup35N fusion, yeast selection) (log enrichment); library NNK1; higher = more nucleation; inactive = no reads after selection
Outline: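 Nucleation score is defined as the DiMSum log enrichment of output over input reads, with centring on the mode score of non-aggregating sequences. A minimum of 100 input reads was required for each sequence. Reads came from Illumina sequencing of plasmid inserts from psi-negative yeast expressing Sup35N fused to peptides of 20 random codons, induced with 100 μM copper sulfate for 24 hours and grown 7 days at 30°C on medium lacking adenine and uracil.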

Substance | amyloid nucleation score
IYFTSTMKLRQDILADNEHC | 1.08 ± 0.54
KVLNFNLSRACLLWDSFNSV | 2.65 ± 0.19
YVQLI | -0.256 ± 0.39
IDCIWGLCNWFHSLVMCVHS | inactive
ECYQKTGVCRK | -0.447 ± 0.89
TSCVLFLYTPLTGSFLAGCP | -0.46 ± 0.59
YSFLNYLLTRFDIIFLAAED | inactive
DSYWFRRLC | 0.22 ± 0.71
SLYLGNSGSDLGD | 0.2 ± 1.1
SMLAFQMITKQRQHSFWMWT | -0.766 ± 0.39
IPNGNVSSSLSVGIMPVAFR | 4.36 ± 0.092
TFYEHMVCGRHQSQAVWLVK | 0.169 ± 0.6
RARWDPFLMCYLTVVWTSFV | -0.12 ± 0.29
LRISSFDMDNSVWFSRVYNY | 0.844 ± 0.26
RGYSSTPRFVNIACYMVQSL | 2.45 ± 0.26
WKQMVLGVWCESLELL | -0.548 ± 0.56
PWSALTASGTKISSSKSRLG | -0.331 ± 0.93
FMFDNYIGRSGSGGCSGDGR | -0.417 ± 1.2
FRLVNIIR | 0.317 ± 0.33
GSNTFI | 0.243 ± 0.31
LINDRPPSSAMERRNVATSS | 0.096 ± 0.57
NPVPGARKNRVHAGSKSDTG | 0.075 ± 0.68
PQKHSFAWHRMVATLALSYR | 1.17 ± 0.93
EGPQIKAAGKPY | -0.373 ± 0.32

Substance | amyloid nucleation score
KTMMIGFNNMWGGVQ | 3.34 ± 0.21
HSSKYRRFVSTTVTIVSVSR | 4.01 ± 0.09
MEISLVINWSIIITKVCVCV | 0.497 ± 0.33
RPLFIMSLFRGWRRIKLHGS | -0.527 ± 0.49
QGFRVWKLNTIKRHSWMGFA | 0.772 ± 0.44
YFLGQMLISEGIMSVAFCVR | 5.13 ± 0.073
DWVYITLNGLLW | -0.145 ± 0.46
PCLLCVYCMFL | 4.53 ± 0.055
RWCMCVENRGMLVWGWNGFV | -0.245 ± 0.53
IFHGRNYSFSS | -0.422 ± 0.45
MVLTFAV | -1.36 ± 2.4
MVIRYFCQESA | -0.799 ± 1.1
VQYNLTCNYY | 4.01 ± 0.14
GATSFFFSFRESNPLSNNHS | 2.79 ± 0.099
EGLTNMWGGSYYNGLTFMGQ | -0.754 ± 0.54
KDNLYWKDLSVCLRRFVGLH | inactive
NSRMRFILGTFY | 1.63 ± 0.41
SFEDGGLMFMAPDIRGTGTR | 0.884 ± 0.79
HSCVPICNEYSAADRSYFRY | 0.343 ± 0.97
CVSPSVTNFAELVSIVISPS | 0.652 ± 0.66
IVTALEGYRDYFSEPCIFFM | -0.176 ± 0.32
NYIGYLYLFDFCEHDLCRCF | 6.62 ± 0.074
KQRSN | 0.746 ± 0.7
HCHSPATKPALTLMMY | -0.738 ± 0.93

Substance | amyloid nucleation score
SWCHVKIVSYRVSEVR | 0.228 ± 0.32
LGVPRVISCSCHLSVRNSAK | 0.413 ± 0.9
ITMFNLYQCSL | 5.78 ± 0.065
SFSFKCDYYVPCRRYIFVIL | -1.3 ± 1.1
GKNDLSMNIGELWASGRGVV | 2.18 ± 0.24
ASVYQRWPSFYRRLFVFNVI | 0.358 ± 0.55
FRYKDGCSFSTAVDYSCRMF | 1.06 ± 0.23
SSFIWMNC | -0.377 ± 0.42
SLCFYGEQIFHN | 2.24 ± 0.17
RVTPISCKYVLLTPMRLKNR | 2.35 ± 0.3
FKESLGFMFMHDMSWDGLLV | 0.224 ± 0.7
RPSITNRPC | 0.735 ± 0.83
CEAFADTSSSYRDFYLQHQL | -1.44 ± 1.2
PCPSINWLMIINNR | 7.743 ± 0.051
MFIASGV | -1.65 ± 0.84
HSLLVMQDVCPE | 0.69 ± 0.56
EIVRLVSVSVWVG | 0.014 ± 0.69
SRTVVTYHQLTWHGVGYMV | 0.571 ± 1.2
MKRVWSYIAGKNARNLKGRL | 0.174 ± 0.41
KGCCLCLISMSVTNRLVEPR | 6.294 ± 0.059
DRFGWF | -0.148 ± 0.32
INYTTWHYASCFRFT | 2.82 ± 0.14
FMASTRRFPLSLMRRAHVYL | -0.182 ± 1.3
